Results taken from paper PMC2577357 (Nucleic Acids Research, 2008).

T1: MthRnl (Methanobacterium thermoautotrophicum ΔH, UniProt O27289 1-381)
T1 sequence: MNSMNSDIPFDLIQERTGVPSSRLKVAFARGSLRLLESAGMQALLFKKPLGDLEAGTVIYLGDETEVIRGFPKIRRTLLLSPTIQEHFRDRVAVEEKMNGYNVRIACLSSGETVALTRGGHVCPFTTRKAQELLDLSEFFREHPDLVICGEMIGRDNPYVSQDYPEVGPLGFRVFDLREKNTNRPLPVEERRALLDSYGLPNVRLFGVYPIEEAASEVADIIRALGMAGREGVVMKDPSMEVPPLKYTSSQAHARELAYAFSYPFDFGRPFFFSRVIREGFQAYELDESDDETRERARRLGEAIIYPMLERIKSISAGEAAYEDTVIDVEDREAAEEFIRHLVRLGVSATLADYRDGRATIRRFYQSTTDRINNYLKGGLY

B1: Methanobacterium RNA ligase (MthRnl), full-length, His10-tagged (enzyme, Methanobacterium thermoautotrophicum ΔH, UniProt O27289 1-381, looked up)
chain: T1 sequence
B2: pDNA 24-mer (ssDNA)
DNA: ATTCCGATAGTGCGTGTCGCCCTT
modifications: 5'-phosphate
B3: pRNA 24-mer (ssRNA)
RNA: AUUCCGAUAGUGCGUGUCGCCCUU
modifications: 5'-phosphate

Legend:
[1] = target: the molecule itself; assay: glycerol gradient sedimentation
[2] = target: T1, MthRnl; assay: EMSA

Binder | stoichiometry N [1] | Kd [2]
B1 | 2 | –
B2 | – | ~2 µM
B3 | – | ~1.5 µM
